Laboratory results reported in article PMC9696180.

What was measured:
αVβ3 integrin [1] = biological target: αVβ3 integrin (UniProt P06756)
αVβ3 integrin [2] = biological target: αVβ3 integrin (UniProt P06756); remark: listed apart in the source
αVβ3 integrin [3] = biological target: αVβ3 integrin (UniProt P06756); experiment: BLI; Octet Red 96; biotinylated αVβ3 integrin on streptavidin (SAX) biosensors, usGNPs in solution, association 40-60 min; 50 mM HEPES pH 7.4, 150 mM NaCl, 5 mM KCl, 0.1% BSA, 0.05% Tween 20, 50 µM CaCl2; 30 °C; Kd approximated from the response at equilibrium against usGNP concentration, fit to the Hill equation

uptake by U-87 MG cells (high αVβ3 integrin), 1 × 10^8 particles per cell, 60 min, internalised gold by ICP-MS (usGNPs per cell) (αVβ3 integrin [2]) | Kd (αVβ3 integrin [3]) | Substance | cytotoxicity on αVβ3 integrin expressing U-87 MG cells (XTT viability, 3 days), IC50 in DM1 equivalent concentration; DM1-usGNP without cRGD 25.2 nM (αVβ3 integrin [1])
1.67e+07 | 0.0292 nM | HighcRGD-usGNP, (α-Galactose-C2)145(PEG(8)COOH)85(cRGD)60@Au2000 | 
4.9e+06 | 3.2 nM | LowcRGD-usGNP, (α-Galactose-C2)145(PEG(8)COOH)125(cRGD)20@Au2000 | 

Further lines, the substance ahead of its results:

Substance | uptake by U-87 MG cells (high αVβ3 integrin), 1 × 10^8 particles per cell, 60 min, internalised gold by ICP-MS (usGNPs per cell) (αVβ3 integrin [2]) | Kd (αVβ3 integrin [3]) | cytotoxicity on αVβ3 integrin expressing U-87 MG cells (XTT viability, 3 days), IC50 in DM1 equivalent concentration; DM1-usGNP without cRGD 25.2 nM (αVβ3 integrin [1])
DM1-cRGD-usGNP, (α-Galactose-C2)135(PEG(8)COOH)115(cRGD)20(DM1)20@Au2000 |  |  | 5 nM
HighcRAD-usGNP, (α-Galactose-C2)145(PEG(8)COOH)85(cRAD)60@Au2000 | 2.7e+06 |  | 
LowcRAD-usGNP, (α-Galactose-C2)145(PEG(8)COOH)125(cRAD)20@Au2000 | 1.6e+06 |  | 
